What was measured:
[1] = target: T1, WT BLMcore (Homo sapiens, UniProt P54132 636-1298); test: EMSA; 5 mM MgCl2; distinct shift; estimated apparent KD; 50 mM Tris-HCl pH 7.5, 50 mM KCl, 5 mM MgCl2, 1 mM DTT, 0.1 mg/mL BSA, 40 nM DNA, 30 min room temperature; 5% gel in TBE + 100 mM KCl at 4 C; conditions: protein: recombinant; (HisTrap purified); label: 3'-FAM on oAV320 (strand 2); 18 bp duplex, 3' overhang 39 nt on strand 1
[2] = target: T1, WT BLMcore; test: EMSA; 5 mM MgCl2; smear; estimated apparent KD; 50 mM Tris-HCl pH 7.5, 50 mM KCl, 5 mM MgCl2, 1 mM DTT, 0.1 mg/mL BSA, 40 nM DNA, 30 min room temperature; 5% gel in TBE + 100 mM KCl at 4 C; conditions: protein: recombinant, (HisTrap purified)

T1 sequence (P54132 636-1298): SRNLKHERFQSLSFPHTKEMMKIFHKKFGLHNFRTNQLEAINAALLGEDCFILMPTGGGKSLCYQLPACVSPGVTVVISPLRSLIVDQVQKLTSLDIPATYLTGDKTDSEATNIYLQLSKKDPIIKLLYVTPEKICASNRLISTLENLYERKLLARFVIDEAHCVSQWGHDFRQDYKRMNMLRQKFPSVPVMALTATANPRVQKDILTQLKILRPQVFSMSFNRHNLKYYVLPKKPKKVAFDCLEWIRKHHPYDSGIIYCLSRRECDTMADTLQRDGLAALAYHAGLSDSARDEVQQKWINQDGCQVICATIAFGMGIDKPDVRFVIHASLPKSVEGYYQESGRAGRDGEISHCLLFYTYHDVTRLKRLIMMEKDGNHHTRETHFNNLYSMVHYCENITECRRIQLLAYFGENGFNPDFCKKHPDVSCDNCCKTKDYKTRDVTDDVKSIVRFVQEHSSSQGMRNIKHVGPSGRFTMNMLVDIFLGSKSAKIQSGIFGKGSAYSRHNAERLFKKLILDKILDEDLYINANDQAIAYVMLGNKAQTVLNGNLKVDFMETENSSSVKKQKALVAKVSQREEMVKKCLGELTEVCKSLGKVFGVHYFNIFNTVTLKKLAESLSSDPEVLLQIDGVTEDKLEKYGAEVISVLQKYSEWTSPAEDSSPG

B1: partial dsDNA with 3' ssDNA overhang (oRC32/FAM-oAV320) (dsDNA)
DNA 1: TGGCGACGGCAGCGAGGCTTAGGGTTAGCGTTAGCGTTAGGGTTTTTTTTTTTTTTT
DNA 2: GCCTCGCTGCCGTCGCCA
Kd [1]: ~79 nM

TTTTTTTTTTTTTTTTTTTTTTTTTTTTTT (ssDNA) [FAM-dT30 (ssDNA)]
Kd ([2]; single strand): ~125 nM

GGGTTAGGGTTAGGGTTAGGGTTTTTTTTTT (structured_DNA) [G4 DNA with 3' ssDNA overhang (FAM-oRC96)]
Kd ([2]; label: 3'-FAM, intramolecular G4 (folded in 100 mM KCl) with 3' T-rich ssDNA tail): ~125 nM

From paper PMC10237670, “Biochemical properties of naturally occurring human bloom helicase variants”
